Source: paper doi:10.1101/2020.09.10.287607 (bioRxiv, 2020)
Each block holds one binder with its values, some of them ahead of it.

Columns and labels:
Assay in all cases: in vitro binding assay
[1] = target: T1, recombinant human RSPO2 (Peprotech 120-43) (human, UniProt Q6UXX9 22-243)
[2] = target: T2, recombinant human RSPO3 (Peprotech 120-44) (human, UniProt Q9BXY4 22-272)
T2 sequence (looked up): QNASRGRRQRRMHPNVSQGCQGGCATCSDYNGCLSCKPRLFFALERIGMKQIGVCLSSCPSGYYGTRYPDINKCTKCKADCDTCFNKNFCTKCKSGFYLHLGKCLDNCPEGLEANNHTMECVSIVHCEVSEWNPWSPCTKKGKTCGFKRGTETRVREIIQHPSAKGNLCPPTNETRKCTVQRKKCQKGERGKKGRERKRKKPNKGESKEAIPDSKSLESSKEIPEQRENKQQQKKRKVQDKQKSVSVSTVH

[3] = target: T1, recombinant human RSPO2 (Peprotech …); remark: listed apart in the source

T1 sequence (Q6UXX9 22-243): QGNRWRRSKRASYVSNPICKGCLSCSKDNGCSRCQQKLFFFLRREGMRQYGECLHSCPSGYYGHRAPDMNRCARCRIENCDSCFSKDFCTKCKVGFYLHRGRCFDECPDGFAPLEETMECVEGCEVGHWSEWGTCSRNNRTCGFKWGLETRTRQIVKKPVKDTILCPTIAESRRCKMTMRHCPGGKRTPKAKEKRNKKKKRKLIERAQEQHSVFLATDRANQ

- Kd [1]: ~4.8 nM
B1: BMPR1A^ECD-AP (domain or fragment, UniProt P36894 24-152, looked up)
chain: QNLDSMLHGTGMKSDSDQKKSENGVTLAPEDTLPFLKCYCSGHCPDDAINNTCITNGHCFAIIEEDDQGETTLASGCMKYEGSDFQCKDSPKAQLRRTIECCRTNLCNQYLQPTLPPVVIGPFFDGSIR

- binding result [2]: binds
- binding result [3]: binds
B2: recombinant human ZNRF3 Fc Chimera protein (R&D systems 7994-RF) (Fc fusion, UniProt Q9ULT6 56-219, looked up)
chain: KETAFVEVVLFESSPSGDYTTYTTGLTGRFSRAGATLSAEGEIVQMHPLGLCNNNDEEDLYEYGWVGVVKLEQPELDPKPCLTVLGKAKRAVQRGATAVIFDVSENPEAIDQLNQGSEDPLKRPVVYVKGADAIKLMNIVNKQKVARARIQHRPPRQPTEYFDM
